Key:
[1] = biological target: 天然类风湿因子RF (natural rheumatoid factor; 北京霍尔姆斯(Holmes)生物技术有限公司, 货号HA129AN); assay: indirect ELISA, RF coated, ascites diluted 1:62500
[2] = biological target: 天然类风湿因子RF (natural rheumatoid factor; 北京霍尔姆斯(Holmes)生物技术有限公司, 货号HA129AN); assay: indirect ELISA, RF coated, ascites diluted 1:100
[3] = biological target: 天然类风湿因子RF (natural rheumatoid factor; 北京霍尔姆斯(Holmes)生物技术有限公司, 货号HA129AN); assay: indirect ELISA, RF coated, ascites diluted 1:12500
[4] = biological target: 天然类风湿因子RF (natural rheumatoid factor; 北京霍尔姆斯(Holmes)生物技术有限公司, 货号HA129AN); assay: indirect ELISA, RF coated, ascites diluted 1:500
[5] = biological target: 天然类风湿因子RF (natural rheumatoid factor; 北京霍尔姆斯(Holmes)生物技术有限公司, 货号HA129AN); assay: indirect ELISA, RF coated, ascites diluted 1:312500
[6] = biological target: 天然类风湿因子RF (natural rheumatoid factor; 北京霍尔姆斯(Holmes)生物技术有限公司, 货号HA129AN); assay: indirect ELISA, RF coated, ascites diluted 1:1562500
[7] = biological target: 类风湿因子RF in clinical false-positive serum samples 9233354 (RF1) and 9233353 (RF2); assay: cell-based or functional assay
[8] = biological target: 天然类风湿因子RF (natural rheumatoid factor; 北京霍尔姆斯(Holmes)生物技术有限公司, 货号HA129AN); assay: indirect ELISA, RF coated, ascites diluted 1:2500

B1: 单克隆抗体anti-blocker-MAB7 (A3-2) (antibody, V domains shown)
VH: VKLQQSGPGLVKPSQSLSLTCTVTGYSITSDYAWNWIRQFPGNKLEWMGYISYSGSTSYNPSLQSRISITRDTSKNQFFLQLNSVTTEDTATYYCARLANWVFDYWGQGTTLTVSS
VL: DIQMTQSPASLSVSVGETVTITCRASENIYSFLAWYQQKQGKSPQLLVYAATNLADGVPSRFSGSGSGTQYSLKINSLQYEDFGSYYCQHFRGTPYTFGGGTRL
**Q.** For B1, which ELISA read-out at ascites dilution 62500 [1] is on record?
**A.** 0.715

**Q.** And the ELISA read-out at ascites dilution 100 [2]?
**A.** 2.01

**Q.** What about the ELISA read-out at ascites dilution 12500 [3] of the same binder?
**A.** 1.17

**Q.** And the ELISA read-out at ascites dilution 500 [4]?
**A.** 1.82

**Q.** And the ELISA read-out at ascites dilution 312500 [5]?
**A.** 0.461

**Q.** And the ELISA read-out at ascites dilution 1562500 [6]?
**A.** 0.195

**Q.** What about the 干扰的影响降低 (免疫胶体金平台) [7] of the same binder?
**A.** 10 倍

**Q.** And the ELISA read-out at ascites dilution 2500 [8]?
**A.** 1.52

From patent CN115746131A
